# Where no end group is shown, it is not given here. fluorescein = fluorescein label at the peptide N-terminus
# T1: M2-1 (Human respiratory syncytial virus …, UniProt P04545 1-194)
# T1 sequence: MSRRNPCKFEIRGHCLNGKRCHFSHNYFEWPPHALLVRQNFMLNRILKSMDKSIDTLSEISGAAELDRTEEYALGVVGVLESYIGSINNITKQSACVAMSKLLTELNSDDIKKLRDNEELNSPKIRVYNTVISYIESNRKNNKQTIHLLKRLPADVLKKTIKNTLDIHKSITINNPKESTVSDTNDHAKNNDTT
# B1: Human respiratory syncytial virus (HRSV) M2-1 protein, full-length native tetramer (natural protein)
# chain: T1 sequence
# notes: HRSV M2-1 protein, strain A2, M2-1 ORF; 194 amino acids; Also used here as the wild-type M2-1 of the minigenome rows, where it was expressed from a plasmid in BSRT7 cells; also called native M2-1; tetrameric M2-1; source: E. coli BL21(DE3) Gold, purified (glutathione Sepharose, on-column PreScission cleavage, SP Sepharose; Superdex 75 for crystallization); not shown: GST, N-terminal, cleaved
# B2: GST-P90-160 (domain or fragment)
# chain: DPTPSDNPFSKLYKETIETFDNNEEESSYSYEEINDQTNDNITARLDRIDEKLSEILGMLHTLVVASAGPT
# notes: HRSV phosphoprotein P, strain A2, residues 90-160; pGEX-6P-2 construct; not shown: GST, N-terminal, kept
# B3: GST-P90-110 (domain or fragment, UniProt P03421 90-110, looked up)
# chain: DPTPSDNPFSKLYKETIETFD
# notes: HRSV phosphoprotein P, strain A2, residues 90-110; pGEX-6P-2 construct; also called P90–110 (GST fusion); not shown: GST, N-terminal, kept
# B4: P90-110 peptide, unlabeled (residues 90 to 110 of HRSV P) (peptide, UniProt P03421 90-110, looked up)
# peptide: DPTPSDNPFSKLYKETIETFD
# notes: HRSV phosphoprotein P, strain A2, residues 90-110; residues 97 to 109 seen in the density; also called P peptide; source: synthetic peptide (ProteoGenix)
# B5: Fluorescein-labeled P90-110 peptide (peptide, UniProt P03421 90-110, looked up)
# peptide: fluorescein-DPTPSDNPFSKLYKETIETFD
# notes: HRSV phosphoprotein P, residues 90-110; Strain A2 is stated for the unlabeled peptide; source: synthetic peptide (ProteoGenix)
# Columns and labels:
# [1] = biological target: GST-P1-241 (full-length HRSV phosphoprotein P fused to GST) (human respiratory syncytial virus, strain A2) (UniProt P03421)
# [2] = biological target: T2, GST-P1-241 (full-length HRSV phosphoprotein P fused to GST) (human respiratory syncytial virus, …, UniProt P03421 1-241); experiment: pull-down; GST-P constructs from clarified E. coli lysates held on glutathione Sepharose 4B and washed; 1 mg purified M2-1 added, room temperature, 5 min; 25 mM Tris/HCl pH 7.4, 150 mM NaCl, 1 mM DTT; SDS-PAGE, Coomassie staining; settings: both partners purified
# T2 construct: pGEX-6P-2 construct; Also used here as the wild-type P of the minigenome rows, where P was expressed from a plasmid in BSRT7 cells (no GST told there); also called WT P; not shown: GST, N-terminal, kept
# [3] = biological target: B4; experiment: crystal structure; M2-1 tetramer mixed with P90-110 in a 1:1 molar ratio, concentrated to 8 mg/ml; sitting drop vapor diffusion at 18°C; 0.2 M trimethylamine N-oxide dihydrate, 0.1 M Tris-HCl pH 8.5, 2% PEG MME 2000; 2.4 Å; settings: both partners purified
# [4] = biological target: the molecule itself; experiment: as above
# [5] = biological target: B1; experiment: pull-down; GST-P constructs from clarified E. coli lysates held on glutathione Sepharose 4B and washed; 1 mg purified M2-1 added, room temperature, 5 min; 25 mM Tris/HCl pH 7.4, 150 mM NaCl, 1 mM DTT; SDS-PAGE, Coomassie staining; settings: both partners purified
# [6] = biological target: B1; experiment: crystal structure; M2-1 tetramer mixed with P90-110 in a 1:1 molar ratio, concentrated to 8 mg/ml; sitting drop vapor diffusion at 18°C; 0.2 M trimethylamine N-oxide dihydrate, 0.1 M Tris-HCl pH 8.5, 2% PEG MME 2000; 2.4 Å; settings: both partners purified
# [7] = biological target: B1; experiment: fluorescence polarisation; fluorescence anisotropy, direct binding; 10 nM fluorescein-labeled P90-110, M2-1 0.1 nM to 300 μM; 20 mM Tris-Cl pH 7.5, 150 mM NaCl, 0.01% Triton X-100; 30 min at room temperature; 384-well; triplicate; apparent; settings: both partners purified
# M2-1 = biological target: T1, M2-1; experiment: fluorescence anisotropy competition; displaces 10 nM fluorescein-P90-110 peptide from 1 uM M2-1; 20 mM Tris-Cl pH 7.5, 150 mM NaCl, 0.01% Triton X-100, room temperature, 30 min; settings: protein: recombinant; tags: GST removed by PreScission protease; chain copies: 4; single strand
molecule,measurement,setting,value
HRSV M2-1 R126E (from UniProt P04545 1-194) (natural protein),"HRSV minigenome assay, eGFP fluorescence in BSRT7 cells relative to WT M2-1",[1],30 % of WT M2-1
HRSV M2-1 L148A (from UniProt P04545 1-194) (natural protein),"HRSV minigenome assay, eGFP fluorescence in BSRT7 cells relative to WT M2-1",[1],30 % of WT M2-1
B1,binding result,[2],binds
same,stoichiometry N,[3],1
same,stoichiometry N,[4],4
B2,binding result,[5],binds
B3,binding result,[5],binds
B4,binding result,[6],binds
B5,Kd,[7],7.5 µM
AAAAAAAAAAAAA (ssRNA) [A13 (poly(A) RNA 13-mer)],IC50,M2-1,1.7 µM

# — publication PMC6234862, “The Structure of the Human Respiratory Syncytial Virus M2-1 Protein Bound to the Interaction Domain of the Phosphoprotein P Defines the Orientation of the Complex” (mBio, 2018)
